Test results reported in patent US20020115606A1 (MYRIAD GENETICS, published 2002).

B4: CIB amino acids 1-191 (other, UniProt P04386 1-147, looked up)
chain: MKLLSSIEQACDICRLKKLKCSKEKPKCAKCLKNNWECRYSPKTKRSPLTRAHLTEVESRLERLEQLFLLIFPREDLDMILKMDSLQDIKALLTGLFVQDNVNKDAVTDRLASVETDMPLTLRQHRISATSSSEESSNKGQRQLTVSMGGSGSRLSKELLAEYQDLTFLTKQEILLAHRRFCELLPQEQRSVESSLRAQVPFEQILSLPELKANPFKERICRVFSTSPAKDSLSFEDFLDLLSVFSDTATPDIKSHYAFRIFDFDDDGTLNREDLSRLVNCLTGEGEDTRLSASEMKQLIDNILEESDIDRDGTINLSEFQHVISRSPDFASSFKIVL

What was measured:
[1] = biological target: T1, PN7740 amino acids 27-322 (yeast; human, UniProt P04386 768-881); assay: yeast two-hybrid
T1 construct: also called novel phosphatase
T1 sequence: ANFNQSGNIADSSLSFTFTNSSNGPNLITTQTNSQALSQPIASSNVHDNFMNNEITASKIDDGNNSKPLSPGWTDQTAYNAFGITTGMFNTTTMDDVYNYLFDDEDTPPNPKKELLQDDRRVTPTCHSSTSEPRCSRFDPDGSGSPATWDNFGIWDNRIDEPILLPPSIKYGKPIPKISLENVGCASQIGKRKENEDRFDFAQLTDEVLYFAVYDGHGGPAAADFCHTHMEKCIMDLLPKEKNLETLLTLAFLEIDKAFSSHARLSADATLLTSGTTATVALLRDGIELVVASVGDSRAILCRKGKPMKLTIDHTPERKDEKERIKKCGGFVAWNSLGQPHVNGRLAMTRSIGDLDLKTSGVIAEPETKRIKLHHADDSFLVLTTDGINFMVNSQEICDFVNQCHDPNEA
Description: (§1) The principles and methods of the yeast two-hybrid systems have been described in detail (Bartel and Fields, 1997). The following is thus a description of the particular procedure that was used, which was applied to all proteins.
(§2) The cDNA encoding the bait protein was generated by PCR from brain cDNA. Gene-specific primers were synthesized with appropriate tails added at their 5′ ends to allow recombination into the vector pGBTQ. The tail for the forward primer was 5′-[…]-3′ (SEQ ID NO: 1) and the tail for the reverse primer was 5′-[…]-3′ (SEQ ID NO:2). […] The new construct was selected directly in the yeast J693 for its ability to drive tryptophane synthesis (genotype of this strain: Mat α, ade2, his3, leu2, trp1, URA3::GAL1-lacZ LYS2::GAL1-HIS3 gal4del gal80del cyhR2). In these yeast cells, the bait is produced as a C-terminal fusion protein with the DNA binding domain of the transcription factor Gal4 (amino acids 1 to 147). A total human brain (person) cDNA library cloned into the yeast expression vector pACT2 was purchased from Clontech (human brain […] cDNA, cat. # HL4004AH), transformed into the yeast strain J692 (genotype of this strain: Mat α, ade2, his3, leu2, trp1, URA3::GAL1-lacZ LYS2::GAL1-HIS3 gal4del gal80del cyhR2), and selected for the ability to drive leucine synthesis. In these yeast cells, each cDNA is expressed as a fusion protein with the transcription activation domain of the transcription factor Gal4 (amino acids 768 to 881) and a 9 amino acid hemagglutinin epitope tag. J693 cells […] expressing the bait were then mated with J692 cells […] expressing proteins from the brain library. The resulting diploid yeast cells expressing proteins interacting with the bait protein were selected for the ability to synthesize tryptophane, leucine, histidine, and β-galactosidase.

[2] = biological target: phosphodiesterase 9A (PDE-9A) amino acids 269-593 (yeast; human, UniProt P04386 768-881; O76083 269-593); assay: yeast two-hybrid
Description: as §1, §2

[3] = biological target: Focal adhesion kinase (FAK) amino acids 724-1052 (yeast, UniProt P04386 1-147; Q05397 724-1052); assay: yeast two-hybrid
Description: as §1, §2

[4] = biological target: T2, mixed lineage kinase 2 (MLK2) amino acids 305-549 (yeast; human, UniProt P04386 768-881; Q02779 305-549); assay: yeast two-hybrid
T2 construct: also called MST; MAP3K10
Description: as §1, §2

[5] = biological target: glyceraldehyde-3-phosphate dehydrogenase (GAPDH) amino acids 2-190 (yeast; human, UniProt P04386 768-881; P04406 2-190); assay: yeast two-hybrid
Description: as §1, §2

[6] = biological target: T3, Mint1 amino acids 447-758 (yeast, UniProt P04386 1-147; Q02410 447-758); assay: yeast two-hybrid
T3 construct: also called X11 alpha
Description: as §1, §2

[7] = biological target: T4, Focal adhesion kinase 2 (FAK2) amino acids 673-866 (yeast, UniProt P04386 1-147; Q14289 673-866); assay: yeast two-hybrid
T4 construct: also called PYK2; CAKβ
Description: as §1, §2

[8] = biological target: T5, glutamine synthase (GS) amino acids 49-212 (yeast; human, UniProt P04386 768-881; P15104 49-212); assay: yeast two-hybrid
T5 construct: also called glutamine synthetase; glutamate ammonia ligase
Description: as §1, §2

[9] = biological target: transthyretin (TTH) amino acids 7-148 (yeast; human, UniProt P04386 768-881; P02766 7-147); assay: yeast two-hybrid
Description: as §1, §2

CIB amino acids 1-191 = biological target: B4; assay: yeast two-hybrid, Gal4, human brain cDNA library

B1: Fe65 amino acids 360-552 (first phosphotyrosine binding domain, PTB) (other, UniProt P04386 1-147, looked up)
chain: MKLLSSIEQACDICRLKKLKCSKEKPKCAKCLKNNWECRYSPKTKRSPLTRAHLTEVESRLERLEQLFLLIFPREDLDMILKMDSLQDIKALLTGLFVQDNVNKDAVTDRLASVETDMPLTLRQHRISATSSSEESSNKGQRQLTVSPRNTNPGIKCFAVRSLGWVEMTEEELAPGRSSVAVNNCIRQLSYHKNNLHDPMSGGWGEGKDLLLQLEDETLKLVEPQSQALLHAQPIISIRVWGVGRDSGRERDFAYVARDKLTQMLKCHVFRCEAPAKNIATSLHEICSKIMAERRNARCLVNGLSLDHSKLVDVPFQVEFPAPKNELVQKFQVYYLGNVP
- binding result [1]: binds

B2: Mint2 amino acids 1-210 (other, UniProt P04386 1-147, looked up)
chain: MKLLSSIEQACDICRLKKLKCSKEKPKCAKCLKNNWECRYSPKTKRSPLTRAHLTEVESRLERLEQLFLLIFPREDLDMILKMDSLQDIKALLTGLFVQDNVNKDAVTDRLASVETDMPLTLRQHRISATSSSEESSNKGQRQLTVSMAHRKLESVGSGMLDHRVRPGPVPHSQEPESEDMELPLEGYVPEGLELAALRPESPAPEEQECHNHSPDGDSSSDYVNNTSEEEDYDEGLPEEEEGITYYIRYCPEDDSYLEGMDCNGEEYLAHSAHPVDTDECQEAVEEWTDSAGPHPHGHEAEGSQDYPDGQLPIPEDEPSVLEAHDQEEDGHYCASKEGYQDYYPEEANGNTGASPY
notes: also called X11 beta
- binding result [2]: binds

B3: casein kinase II (CK2) amino acids 264-351 (other, yeast;human, UniProt P04386 768-881, looked up, not shown: small tags and cut ends)
chain: ANFNQSGNIADSSLSFTFTNSSNGPNLITTQTNSQALSQPIASSNVHDNFMNNEITASKIDDGNNSKPLSPGWTDQTAYNAFGITTGMFNTTTMDDVYNYLFDDEDTPPNPKKEIDLDPHFNDILGQHSRKRWENFIHSENRHLVSPEALDLLDKLLRYDHQQRLTAKEAMEHPYFYPVVKEQSQPCADNAVLSSGLTAAR
- binding result [3]: binds

Binder: B4
- binding result [4]: binds

B5: Presenilin 2 (PS2) amino acids 1-97 (other, UniProt P04386 1-147, looked up)
chain: MKLLSSIEQACDICRLKKLKCSKEKPKCAKCLKNNWECRYSPKTKRSPLTRAHLTEVESRLERLEQLFLLIFPREDLDMILKMDSLQDIKALLTGLFVQDNVNKDAVTDRLASVETDMPLTLRQHRISATSSSEESSNKGQRQLTVSMLTFMASDSEEEVCDERTSLMSAESPTPRSCQEGRQGPEDGENTAQWRSQENEEDGEEDPDRYVCSGVPGRPPGLEEELTLKYGAKHVIMLFVPVTL
notes: also called Presinilin 2
- binding result [5]: binds

B6: KIAA0427 amino acids 364-589 (other, yeast;human, UniProt P04386 768-881, looked up, not shown: small tags and cut ends)
chain: ANFNQSGNIADSSLSFTFTNSSNGPNLITTQTNSQALSQPIASSNVHDNFMNNEITASKIDDGNNSKPLSPGWTDQTAYNAFGITTGMFNTTTMDDVYNYLFDDEDTPPNPKKETTTPQQNKMDKLIEILNSMRNNSSDVDTKLTTFMEEAQNSTNSEEMLGEIVRTIYQKAVSDRSFAFTAAKLCDKMALFMVEGTKFRSLLLNMLQKDFTVREELQQQDVERWLGFITFLCEVFGTMRSSTGEPFRVLVCPIYTCLRELLQSQDVKEDAVLCCSMELQSTGRLLEEQLPEMMTELLASARDKMLCPSESMLTRSLLLEVIELHANSWNPLTPPITQYY
- binding result [6]: binds

B7: SUR1, type-1 sulfonylurea receptor, amino acids 121-270 (other, yeast;human, UniProt P04386 768-881, looked up, not shown: small tags and cut ends)
chain: ANFNQSGNIADSSLSFTFTNSSNGPNLITTQTNSQALSQPIASSNVHDNFMNNEITASKIDDGNNSKPLSPGWTDQTAYNAFGITTGMFNTTTMDDVYNYLFDDEDTPPNPKKEVVYYHNIETSNFPKLLIALLVYWTLAFITKTIKFVKFLDHAIGFSQLRFCLTGLLVILYGMLLLVEVNVIRVRRYIFFKTPREVKPPEDLQDLGVRFLQPFVNLLSKGTYWWMNAFIKTAHKKPIDLRAIGKLPIAMRALTNYQRLCEAF
- binding result [7]: binds

B8: Mint1 amino acids 739-837 (other, UniProt P04386 1-147, looked up)
chain: MKLLSSIEQACDICRLKKLKCSKEKPKCAKCLKNNWECRYSPKTKRSPLTRAHLTEVESRLERLEQLFLLIFPREDLDMILKMDSLQDIKALLTGLFVQDNVNKDAVTDRLASVETDMPLTLRQHRISATSSSEESSNKGQRQLTVSIVRCPPVTTVLIRRPDLRYQLGFSVQNGIICSLMRGGIAERGGVRVGHRIIEINGQSVVATPHEKIVHILSNAVGEIHMKTMPAAMYRLLTAQEQPVYI
notes: also called X11 alpha
- binding result [8]: binds

B9: BAT3 (HLA-B associated transcript) amino acids 740-1040 (other, UniProt P04386 1-147, looked up)
chain: MKLLSSIEQACDICRLKKLKCSKEKPKCAKCLKNNWECRYSPKTKRSPLTRAHLTEVESRLERLEQLFLLIFPREDLDMILKMDSLQDIKALLTGLFVQDNVNKDAVTDRLASVETDMPLTLRQHRISATSSSEESSNKGQRQLTVSFEPGADGALGFFGALLSLLCQNFSMVDVVMLLHGHFQPLQRLQPQLRSFFHQHYLGGQEPTPSNIRMATHTLITGLEEYVRESFSLVQVQPGVDIIRTNLEFLQEQFNSIAAHVLHCTDSGFGARLLELCNQGLFECLALNLHCLGGQQMELAAVINGRIRRMSRGVNPSLVSWLTTMMGLRLQVVLEHMPVGPDAILRYVRRVGDPPQPLPEEPMEVQGAERASPEPQRENASPAPGTTAEEAMSRGPPPAPEGGSRDEQDGASAETEPWAAAVPPEWVPIIQQDIQSQRKVKPQPPLSD
- binding result [9]: binds

B10: glutathione-S-transferase M3 (GST trans. M3) amino acids 15-226 (other, yeast;human, UniProt P04386 768-881, looked up, not shown: small tags and cut ends)
chain: ANFNQSGNIADSSLSFTFTNSSNGPNLITTQTNSQALSQPIASSNVHDNFMNNEITASKIDDGNNSKPLSPGWTDQTAYNAFGITTGMFNTTTMDDVYNYLFDDEDTPPNPKKERGLAHAIRLLLEFTDTSYEEKRYTCGEAPDYDRSQWLDVKFKLDLDFPNLPYLLDGKNKITQSNAILRYIARKHNMCGETEEEKIRVDIIENQVMDFRTQLIRLCYSSDHEKLKPQYLEELPGQLKQFSMFLGKFSWFAGEKLTFVDFLTYDILDQNRIFDPKCLDEFPNLKAFMCRFEALEKIAAYLQSDQFCKMPINNKMAQWGNKPVC
- binding result [3]: binds

B11: stearoyl CoA desaturase (SCD2) amino acids 320-359 (other)
chain: ANFNQSGNIADSSLSFTFTNSSNGPNLITTQTNSQALSQPIASSNVHDNFMNNEITASKIDDGNNSKPLSPGWTDQTAYNAFGITTGMFNTTTMDDVYNYLFDDEDTPPNPKKETTFFIDCMAALGLAYDRKKVSKAAILARIKRTGDGNYKSG
notes: range 768-881;range 320-359; also called Delta(9) desaturase
- binding result (CIB amino acids 1-191): binds
